Data on 1 molecule can be found in article PMC7662849 (2020).

This assay deals with T1, H3(E5)2 branched peptide (not fully specified).
T1 chain: Ac-EEEEEGGK([Gly-Gly-Kme3‑VGGTAPAS])GGEEEEE-NH2
In words: NMR titration.

Groups on a side chain read outwards from the residue.

By Kd is commonly meant the equilibrium constant for the complex coming apart.

B1: PSIP1 (LEDGF) PWWP domain PWWP (protein)
chain: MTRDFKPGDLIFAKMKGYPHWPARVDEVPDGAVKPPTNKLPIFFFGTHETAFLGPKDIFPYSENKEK
B1 yielded a Kd of 360 µM.
